Paper doi:10.1101/2020.02.28.970509

Columns and labels:
Assay in all cases: fluorescence anisotropy
A3H Hap I K117E/K121E = A3H Hap I K117E/K121E (human, UniProt Q6NTF7 1-200, K117E;K121E)
A3H Hap I K117E = A3H Hap I K117E (human, UniProt Q6NTF7 1-200, K117E)
A3H Hap II = A3H Hap II (human, UniProt Q6NTF7 1-181, G105R;K121D;E178D)
A3H Hap VII = A3H Hap VII (human, UniProt Q6NTF7 1-200, G105R)
Chain of A3H Hap VII (Q6NTF7 whole entry G105R): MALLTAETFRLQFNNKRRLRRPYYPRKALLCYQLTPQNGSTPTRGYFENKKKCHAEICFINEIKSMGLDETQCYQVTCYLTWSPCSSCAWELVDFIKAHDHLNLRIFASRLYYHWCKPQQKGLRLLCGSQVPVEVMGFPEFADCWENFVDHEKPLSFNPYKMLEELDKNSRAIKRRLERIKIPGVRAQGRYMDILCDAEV

Chain of A3H Hap II (Q6NTF7 1-181 G105R/K121D/E178D): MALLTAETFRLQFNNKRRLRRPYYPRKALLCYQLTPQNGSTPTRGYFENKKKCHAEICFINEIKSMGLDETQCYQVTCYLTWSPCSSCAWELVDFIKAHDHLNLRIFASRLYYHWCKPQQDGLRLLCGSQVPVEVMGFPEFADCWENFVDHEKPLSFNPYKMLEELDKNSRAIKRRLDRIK
Chain of A3H Hap I K117E/K121E (Q6NTF7 whole entry K117E/K121E): as the sequence (Q6NTF7 whole entry G105R) above, with R105G, K117E, K121E counted along it
Chain of A3H Hap I K117E (Q6NTF7 whole entry K117E): as the sequence (Q6NTF7 whole entry G105R) above, with R105G, K117E counted along it

B1: 118 nt ssDNA (ssDNA)
DNA: GAATATAGTTTTTAGCTCAAAGTAAGTGAAGATAATTTAGAGAGTTGTAATGTGATATATGTGTATGAAAGATATAAGACTCAAAGTGAAAAGTTGTTAATGTGTGTAGATATGTTAA
modifications: internal fluorescein-dT at position 37 (between S1 and S2)
A3H Hap I K117E/K121E
  Kd: 1240 ± 88 nM
A3H Hap I K117E
  Kd: 3000 ± 1770 nM
A3H Hap II
  Kd: 492 ± 28 nM
A3H Hap VII
  Kd: 522 ± 4 nM
